Consider ten molecules from patent US20100310463A1 (AFFITECH RESEARCH, published 2010).

As a reminder, the EC50 (read off the curve) is the midpoint of the concentration-response curve. In general, Kd refers to the constant that tells how readily two partners part at equilibrium. Read a high Kd as a looser complex. The term koff denotes a measure of how fast the partners let go of each other. Read a high koff as a short-lived complex. In general, kon refers to the second-order rate constant of association. A higher kon goes with faster complex formation.

Test [1] deals with T1, human EpCAM-Fc (human, UniProt P16422 24-265).
T1 construct: extracellular domain; also called human EpCAM/Fc fusion; recombinant human EpCAM antigen; not shown: human Fc region from IgG1; limits not readable
T1 sequence (looked up): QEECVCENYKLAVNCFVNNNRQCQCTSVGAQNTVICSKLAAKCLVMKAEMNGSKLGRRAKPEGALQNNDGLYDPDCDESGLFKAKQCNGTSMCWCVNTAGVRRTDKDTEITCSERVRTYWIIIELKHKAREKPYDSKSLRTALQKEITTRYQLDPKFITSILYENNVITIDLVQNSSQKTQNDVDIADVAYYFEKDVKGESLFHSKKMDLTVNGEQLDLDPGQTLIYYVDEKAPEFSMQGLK
As to the kind of experiment: ELISA, plate coated with human EpCAM-Fc at 1 µg/ml, goat anti-human kappa-HRP, ABTS, Abs 405 nm. How it is done: (§1) For ELISA of antibodies in IgG format, the MAXI-sorb plate was coated with 1 μg/ml (100 μl per well) of human or cynomolgus EpCAM-Fc in PBS overnight at 4° C. The plates were blocked with 3% BSA in PBS for 2 hrs. The IgGs to be tested were added in 2-fold dilutions from 133 nM to 32 fM and incubated for 1 hr at room temperature. For detection of bound IgG, a goat anti-human kappa-HRP antibody (Southern Biotech, cat no 2060-05) was added in 1:5000 dilution in block solution and incubated for 1 hr at room temperature.
(§2) The ELISA of antibodies in IgG format was developed using a 1-step ABTS Kit (Thermo Scientific prod #37615) and a 25 min incubation time. The absorbance was measured on a SLT SPECTRA plate reader. The software Prism (GraphPad, San Diego, Calif.) was used to estimate the affinities using a non-linear fit of one-site model on the retrieved ELISA data.
In general terms: ELISA stands for enzyme-linked immunosorbent assay.

Test [2] concerns the target T2, EpCAM on the surface of EpCAM-positive tumor cell lines (UniProt P16422 24-314, limits assumed).
T2 construct: whole, on cells; One entry for the cell-borne antigen; the cell line of each result is named in the row; also called naturally EpCAM+ Kato III cell line; EpCAM-positive Kato III cells
T2 sequence (looked up): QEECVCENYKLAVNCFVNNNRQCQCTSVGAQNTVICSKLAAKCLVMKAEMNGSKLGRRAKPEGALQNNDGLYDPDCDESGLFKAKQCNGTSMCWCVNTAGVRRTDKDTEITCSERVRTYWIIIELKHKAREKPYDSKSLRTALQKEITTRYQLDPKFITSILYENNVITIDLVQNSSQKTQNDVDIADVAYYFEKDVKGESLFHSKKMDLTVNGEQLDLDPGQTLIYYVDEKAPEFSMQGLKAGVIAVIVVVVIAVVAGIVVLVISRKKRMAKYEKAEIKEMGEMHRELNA
As to the kind of experiment: flow cytometry on Kato III cells, RPE goat anti-human IgG detection, median fluorescence intensity. On the procedure:
Flow cytometric analysis was performed to analyze binding of the 3-17I IgG to EpCAM-positive cells. As positive controls, anti-EpCAM chimeric (mouse variable/human constant domains) and fully human antibodies, MOC31 and MT201, respectively, were used.
The anti-green fluorescent protein (GFP) antibody was used as a negative control. For flow cytometry, Kato III cells (ATCC number (gastric carcinoma, ATCC number HTB-103)) were grown under standard conditions, harvested from the culture flasks, washed 2 times with PBS, re-suspended in PBS with 0.2% BSA and 0.09% NaN₃ and finally distributed at 1×10⁵ cells per well into V-shaped 96-well plates (Greiner Bio-One, Frickenhausen, Germany). Cells were centrifuged at 400×g for 5 min and then incubated at 4° C. for 45 min with 50 μL of each different antibody dilution (all dilutions made in PBS with 0.2% BSA and 0.09% NaN₃). After washing in PBS with 0.2% BSA and 0.09% NaN₃, the cells were stained with 10 μg/mL of RPE-conjugated goat anti-human IgG (AbDSerotec, Düsseldorf, Germany) for 30 min at 4° C. The stained cells were washed, re-suspended in 200 μL PBS with 0.2% BSA and 0.09% NaN₃ and transferred to a U-shaped 96-well plate (Corning, Schiphol-Rijk, The Netherlands) for analysis on EasyCyte flow cytometer (Guava Technologies, Hayward, Calif., USA).

Test [3] addresses T1, human EpCAM-Fc. As to the kind of experiment: ELISA, plate coated with human EpCAM-Fc at 5 µg/ml, scFv detected with mouse anti-cMyc 9E10 and rabbit anti-mouse-HRP, TMB, Abs 450 nm. On the procedure: FIGS. 10A and 10B show ELISA binding analysis of 3-17I scFv, 7-F17 scFv, 17-C20 scFv and 24-G6 scFv to human EpCAM-Fc (FIG. 10A) and to cynomolgus EpCAM-Fc (FIG. 10B). MAXI-Sorb plates were coated with human or cynomolgus EpCAM-Fc at a concentration of 5 μg/ml. The antibody was added in 2-fold dilutions from 667 nM to 3.2 nM.
For ELISA of antibodies in scFv format, the MAXI-sorb plate was coated with 5 μg/ml (100 μl per well) of human or cynomolgus EpCAM-Fc in PBS overnight at 4° C. The plates were blocked with 4% skimmed milk (Merck product no 1.15363.0500) in PBS for 2 hrs. […] For detection of bound scFv, a rabbit anti-mouse-HRP antibody (Dako, cat no P0260) was added in 1:3000 dilution in block solution and incubated for 1 hr at room temperature.

Test [4] concerns the target T2, EpCAM on the surface of EpCAM-positive …. As to the kind of experiment: cell-based or functional assay.
The target in test [5] is T3, cynomolgus EpCAM-Fc (cynomolgus; human, UniProt P01857 99-330 = IgG part).
T3 construct: also called Cynomolgus EpCAM/Fc fusion; recombinant cynomolgus EpCAM antigen
As to the kind of experiment: ELISA, plate coated with cynomolgus EpCAM-Fc at 1 µg/ml, goat anti-human kappa-HRP, ABTS, Abs 405 nm. On the procedure:
as §1, §2

Test [6] deals with T1, human EpCAM-Fc. As to the kind of experiment: SPR, BIAcore T100, EpCAM-Fc coupled to CM5 chip (100 RU), 37 °C, 1:1 Langmuir model; SPR (BIAcore T100), 37 C, native EpCAM-Fc on the CM5 chip. How it is done: Binding of 3-17I to human and cynomolgus monkey EpCAM was analyzed using surface plasmon resonance (SPR) on a BIAcore T100 (BIAcore, Inc, Piscataway, N.J.). The extracellular domains of human or cynomolgus monkey EpCAM fused to human Fc (IgG1), were coupled to a CM5 chip (BIAcore, Inc, Piscataway, N.J.) at density of 100 RU. The SPR studies were performed using standard techniques at 37° C. with a flow rate of 50 μl/min. The data were analyzed using the 1:1 Langmuir binding model of the BIAcore software.
On the technique in general: SPR reads the build-up and loss of mass on a sensor chip optically.

T3 sequence (P01857 other isoform, or with tags, fused parts or gaps limits assumed, form in doubt): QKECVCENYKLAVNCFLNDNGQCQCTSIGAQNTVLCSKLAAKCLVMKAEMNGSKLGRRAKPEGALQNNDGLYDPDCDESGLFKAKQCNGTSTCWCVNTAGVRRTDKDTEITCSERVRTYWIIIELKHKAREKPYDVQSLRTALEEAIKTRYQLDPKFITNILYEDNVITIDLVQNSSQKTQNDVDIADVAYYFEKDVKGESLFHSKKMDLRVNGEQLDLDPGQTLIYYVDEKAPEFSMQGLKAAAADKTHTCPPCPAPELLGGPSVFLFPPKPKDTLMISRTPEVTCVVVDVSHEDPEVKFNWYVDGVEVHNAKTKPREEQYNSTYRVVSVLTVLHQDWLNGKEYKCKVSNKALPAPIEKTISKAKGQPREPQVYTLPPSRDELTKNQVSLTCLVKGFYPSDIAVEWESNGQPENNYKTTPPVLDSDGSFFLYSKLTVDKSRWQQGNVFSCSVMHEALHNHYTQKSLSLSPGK

B1: MOC31 IgG (antibody, V domains shown)
VH: QVKLQQSGPELKKPGETVKISCKASGYTFTNYGMNWVKQAPGKGLKWMGWINTYTGESTYADDFKGRFAFSLETSASAAYLQINNLKNEDTATYFCARFAIKGDYWGQGTTVTVSS
VL: DIVLTQSPFSNPVTLGTSASISCRSTKSLLHSNGITYLYWYLQKPGQSPQLLIYQMSNLASGVPDRFSSSGSGTDFTLRISRVEAEDVGVYYCAQNLEIPRTFGGGTKLEIK
Take B1: the “EC50 (read off the curve)” value was about 1000 pM in test [1] and about 300 ng/mL in test [2].

B2: 3-17I scFv (scFv)
scFv: QVQLVQSGAEVKKPGSSVKVSCKASGGTFSSYAISWVRQAPGQGLEWMGGIIPIFGTANYAQKFQGRVTITADESTSTAYMELSSLRSEDTAVYYCARGLLWNYWGQGTLVTVSSKLSGSASAPKLEEGEFSEARVEIVMTQSPATLSVSPGERATLSCRASQSVSSNLAWYQQKPGQAPRLIIYGASTTASGIPARFSASGSGTDFTLTISSLQSEDFAVYYCQQYNNWPPAYTFGQGTKLEIK
notes: expressed in E. coli TG1 from pHOG21; also called scFv format of 3-17I; not shown: C-terminal c-myc and His6 tags from pHOG21, with their junction residues
Consider B2, for which, in test [3], the binding result was “binds”.

B3: 17-C20 IgG (antibody, V domains shown)
VH: QVQLVQSGAEVKKPGSSVKVSCKASGGTFSSYAISWVRQAPGQGLEWMGGIIPIFGTANYAQKFQGRVTITADESTSTAYMELSSLRSEDTAVYYCARGLLWNYWGQGTLVTVSS
VL: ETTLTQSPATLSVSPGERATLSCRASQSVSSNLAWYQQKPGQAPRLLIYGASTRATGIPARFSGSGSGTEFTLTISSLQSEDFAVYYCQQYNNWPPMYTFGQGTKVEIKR
notes: also called 17-C20 full length IgG
Turning to B3, the binding result in test [1] was “binds”.

B4: 12-C15 IgG (antibody, V domains shown)
VH: QVQLVQSGAEVKKPGSSVKVSCKASGGTFSSYAISWVRQAPGQGLEWMGGIIPIFGTANYAQKFQGRVTITADESTSTAYMELSSLRSEDTAVYYCARGLLWNYWGQGTLVTVSS
VL: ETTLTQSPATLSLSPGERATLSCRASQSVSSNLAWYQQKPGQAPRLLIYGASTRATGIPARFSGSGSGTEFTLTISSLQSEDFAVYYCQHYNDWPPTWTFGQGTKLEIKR
notes: also called 12-C15 full length IgG
Take B4: in test [1], the binding result was “binds”.

B5: 3-17I IgG (antibody, V domains shown)
VH: QVQLVQSGAEVKKPGSSVKVSCKASGGTFSSYAISWVRQAPGQGLEWMGGIIPIFGTANYAQKFQGRVTITADESTSTAYMELSSLRSEDTAVYYCARGLLWNYWGQGTLVTVSS
VL: EIVMTQSPATLSVSPGERATLSCRASQSVSSNLAWYQQKPGQAPRLIIYGASTTASGIPARFSASGSGTDFTLTISSLQSEDFAVYYCQQYNNWPPAYTFGQGTKLEIKR
notes: also called 3-17I full length IgG
For B5, in test [4], the “ADCC EC50, BT-474 cells, human PBMC, E:T 20:1” value came out at 0.12 ng/mL; the “ADCC EC50, MDA-MB-231 cells, human PBMC, E:T 20:1” value was found to be 15 ng/mL; the “ADCC EC50, MDA-MB-453 cells, human PBMC, E:T 20:1” value worked out at 0.08 ng/mL; the “CDC EC50, KATO III cells, human serum” value was found to be 0.28 ng/mL. Moreover, the “CDC EC50, MT-3 cells, human serum” value in test [4] came out at 0.38 ng/mL. Also, the “EC50 (read off the curve)” value in test [1] is about 700 pM. Further, the “EC50 (read off the curve)” value in test [2] is about 100 ng/mL. Moreover, the “EC50 (read off the curve)” value in test [5] was about 600 pM. In test [6], this molecule had a Kd of 1000 pM, a koff of 0.03 s⁻¹ and a kon of 3e+07 M⁻¹ s⁻¹.

B6: 16-G5 IgG (antibody, V domains shown)
VH: QVQLVQSGAEVKKPGSSVKVSCKASGGTFSSYAISWVRQAPGQGLEWMGGIIPIFGTANYAQKFQGRVTITADESTSTAYMELSSLRSEDTAVYYCARGLLWNYWGQGTLVTVSS
VL: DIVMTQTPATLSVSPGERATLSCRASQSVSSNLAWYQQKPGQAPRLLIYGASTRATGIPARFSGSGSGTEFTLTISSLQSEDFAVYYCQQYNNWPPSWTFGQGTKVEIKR
notes: also called 16-G5 full length IgG
For B6, the binding result in test [1] is on record as “binds”.

B7: 7-F17 scFv (scFv)
scFv: QVQLVQSGAEVKKPGSSVKVSCKASGGTFSSYAISWVRQAPGQGLEWMGGIIPIFGTANYAQKFQGRVTITADESTSTAYMELSSLRSEDTAVYYCARGLLWNYWGQGTLVTVSSKLSGSASAPKLEEGEFSEARVETTLTQSPATLSVSPGERATLSCRASQSVSSNLAWYQQKPGQAPRLLIYGASTRATGIPARFSGSGSGTEFTLTISSLQSEDFAVYYCQQYNNWPPGFTFGPGTKVDIK
As for B7, the binding result in test [3] is “binds”.

B8: 24-G6 scFv (scFv)
scFv: QVQLVQSGAEVKKPGSSVKVSCKASGGTFSSYAISWVRQAPGQGLEWMGGIIPIFGTANYAQKFQGRVTITADESTSTAYMELSSLRSEDTAVYYCARGLLWNYWGQGTLVTVSSKLSGSASAPKLEEGEFSEARVETTLTQSPATLSVSPGERATLSCRASQSVSSNLAWYQQKPGQAPRLLIYGASTRATGIPARFSGSGSGTEFTLTISSLQSEDFAVYYCQKYNNWPPAFTFGPGTKVDIK
As to B8, the binding result in test [3] was “binds”.

B9: 17-C20 scFv (scFv)
scFv: QVQLVQSGAEVKKPGSSVKVSCKASGGTFSSYAISWVRQAPGQGLEWMGGIIPIFGTANYAQKFQGRVTITADESTSTAYMELSSLRSEDTAVYYCARGLLWNYWGQGTLVTVSSKLSGSASAPKLEEGEFSEARVETTLTQSPATLSVSPGERATLSCRASQSVSSNLAWYQQKPGQAPRLLIYGASTRATGIPARFSGSGSGTEFTLTISSLQSEDFAVYYCQQYNNWPPMYTFGQGTKVEIK
For B9, in test [3], the binding result is “binds”.

B10: MT201 IgG (antibody, V domains shown)
VH: EVQLLESGGGVVQPGRSLRLSCAASGFTFSSYGMHWVRQAPGKGLEWVAVISYDGSNKYYADSVKGRFTISRDNSKNTLYLQMNSLRAEDTAVYYCAKDMGWGSGWRPYYYYGMDVWGQGTTVTVSS
VL: ELQMTQSPSSLSASVGDRVTITCRTSQSISSYLNWYQQKPGQPPKLLIYWASTRESGVPDRFSGSGSGTDFTLTISSLQPEDSATYYCQQSYDIPYTFGQGTKLEIK
B10: in test [4], the “ADCC EC50, BT-474 cells, human PBMC, E:T 20:1” value was 382 ng/mL; the “ADCC EC50, MDA-MB-453 cells, human PBMC, E:T 20:1” value stood at 7 ng/mL; the “CDC EC50, KATO III cells, human serum” value was determined as 76 ng/mL; the “CDC EC50, MT-3 cells, human serum” value came out at 89 ng/mL. Besides, the “CDC: fold higher antibody concentration needed than for 3-17I IgG (ratio of the EC50 values; KATO III and MT-3 cells, human serum)” value in test [4] worked out at 250 fold.
